Results: the supplement of paper PMC12042874
± gives the uncertainty stated by the source.

Test: amyloid nucleation score (Sup35N fusion, yeast selection) (log enrichment); library NNK3; higher = more nucleation; inactive = no reads after selection
Outline: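 Yeast lacking psi expressed peptides of 20 random codons fused to Sup35N, received 100 μM copper sulfate for 24 hours, and were then grown for 7 days at 30°C on medium lacking adenine and uracil. Illumina sequencing of input and output plasmid inserts provided the reads. Nucleation scores are DiMSum log enrichments of output over input, centred on the mode of non-aggregating sequences. Any sequence with under 100 input reads was excluded.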

Row | Substance | amyloid nucleation score
1 | SVIGTSTSFCLHWLWGWALC | inactive
2 | IIGWDDFLLVYNIKLYHNS | inactive
3 | EYHKMTGIFAPLFILIMVV | inactive
4 | TMWLLCELFVTC | inactive
5 | CCRSWRSYSTVVFICGFLYW | inactive
6 | YLEVLVGSNQCFNMQG | inactive
7 | FHFYGFCLYAYFSAIEDQNC | 2.06 ± 0.071
8 | VRSRRLLCKNRTVVEARNVV | inactive
9 | GRYCWCSLLAKYEMSLPRAR | -0.405 ± 0.8
10 | WGSMMSWQVKFVSILNPLPR | inactive
11 | RSIHYSYWCIYGNIRDTVRS | inactive
12 | TLISYFEG | inactive
13 | IGLSAKIRFWVMWRMRHTR | inactive
14 | AVVFCVSEYYQQKRYLNSSQ | inactive
15 | LFFYRMYDGTWKGDLYIASE | inactive
16 | MILNINVMYYFMYEGKIVMP | 2.7 ± 0.049
17 | WRAADDQTWGLVRCLSI | 0.57 ± 0.17
18 | VIGRTASDGVRCCRVGMMRR | inactive
19 | NCYFIQGWSSLMYSKGFNKC | inactive
20 | IANTHFIIM | 1.14 ± 0.13
21 | YFYWTCSDKRVTIEDVVPLH | inactive
22 | HNSQLWLVPSVFTKRLCHIN | inactive

Row | Substance | amyloid nucleation score
23 | AIYAHYYRTWVFWYYMVPGC | inactive
24 | NFMPNKYCNVELVFWGDLGI | 1.59 ± 0.12
25 | CCFSTGCHEKCSSLDDMCVF | inactive
26 | LLQSLGGKESNLGK | inactive
27 | TFFVLGCLINLLGMKWTGWV | inactive
28 | DYSFYTFPESAVLCTCSSYG | -0.682 ± 1.1
29 | SAIFDGEQERSRDMLL | inactive
30 | MRYINEKCVT | inactive
31 | DFHIKERG | inactive
32 | IWSMWIYCRNGHH | inactive
33 | RAFFDTSCGMSLDPSLIPTG | inactive
34 | SFNNININIVVFNVAPFSVH | 2.51 ± 0.082
35 | CFWFNHSNRRGQFFH | -0.286 ± 0.77
36 | SFLARVFT | inactive
37 | LIRCLVRSNVEFNNMGWWSS | inactive
38 | VKDYNYKFWALPSVPREWVF | inactive
39 | RLCHRWFLDRLTICY | inactive
40 | CPAYMYCTGMSVNTCPGKGG | inactive
41 | SGEYSQRKGSCKGHNGSSRS | inactive
42 | IVTTQHMNGRSDYWITYSSV | -0.447 ± 0.74
43 | VWAYFDMFDTFCYKVTARMK | inactive
44 | KVCIHSIEIV | inactive

Row | Substance | amyloid nucleation score
45 | WSRSSADRVII | -0.471 ± 1.5
46 | SWLNKIAKVIST | inactive
47 | FRYEILTI | 0.912 ± 0.12
48 | IRSKCR | inactive
49 | SETCWVIIYWYIGVKMFSRF | inactive
50 | HFVVKV | 1.27 ± 0.089
51 | DSVVRTSQMSVGYMCVRAEF | inactive
52 | LKGVKCVHSCWELPR | -0.117 ± 1.1
53 | DYTLDANFEGCHGQLTYMND | inactive
54 | TWVILCKNSWFMLI | inactive
55 | HIHEDWFFS | inactive
56 | SVNSVHLMRSSEVGTHEGVG | inactive
57 | RLLVTLQ | inactive
58 | WQITTRTIDRPHYKHPGVPL | inactive
59 | LHRCSLSKNDSAQSMMLTGC | inactive
60 | VLCSVFIFFLRGFDS | 2.3 ± 0.066
61 | LRSFGYRRQ | inactive
62 | TRILVRTGYHLLFLEG | inactive
63 | PLPLCKVM | -0.039 ± 0.66
64 | KSSSAYNRSDHGLMLDRRTQ | inactive
65 | YELFS | 0.922 ± 0.11
66 | VEIKYSVFLRWHVMRDDRLD | inactive
